These results are taken from patent US20140212458A1.

This test has as its target BG505.T332N Env on Env-pseudotyped virus (HIV-1 BG505 (clade A)).

As for CD4-IgG2 (Fc fusion), the IC50, neutralization of BG505.T332N pseudovirus, TZM-bl cells worked out at 0.433 µg/mL.
